In patent US20250152742A1, “COMPOSITIONS AND METHODS FOR NEUROLOGICAL DISEASES” (Trames Bio, Inc., priority 2022, published 2025):
Numbering of substitutions follows the chain as printed. Names may count otherwise.

System: engineered chimeric receptor SEQ ID NO: 33 and its mutants (human α7-nAChR ligand binding domain / human GlyRα1 ion pore domain) in Lenti-X 293T cells
Test: YFP fluorescence quenching anion reporter plate reader assay (percent quench, EC50)
Format: cell-based
Conditions: for YFP fluorescence quenching using CNL001 (percent quench): receptor named in row; for YFP fluorescence quenching using Varenicline, 3 nM var: ligand Varenicline 3 nM; for YFP fluorescence quenching using Varenicline, 30 nM var: ligand Varenicline 30 nM; for YFP fluorescence quenching using Varenicline, 300 nM var: ligand Varenicline 300 nM; for YFP fluorescence quenching using Varenicline, 500 nM var: ligand Varenicline 500 nM; for YFP fluorescence quenching using Varenicline, 1 uM var: ligand Varenicline 1 uM
In short: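 Percent quench compares mean YFP signal over the final 10 s with the 15 s baseline before ligand, added in iodide-containing extracellular solution (pH 7.2). Cells were LX293T carrying a YFP anion reporter, transiently transfected with the channel construct; plates were preincubated 30 min at 37 °C.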

[1] = 1 nM CNL001, first column so headed
[2] = 1 nM CNL001, second column so headed
[3] = 1 nM brd (TC-5619/Bradanicline)
[4] = 3 nM brd (TC-5619/Bradanicline)
[5] = 10 nM CNL001, first column so headed
[6] = 10 nM CNL001, second column so headed
[7] = 10 nM brd (TC-5619/Bradanicline)
[8] = 30 nM brd (TC-5619/Bradanicline)
[9] = 50 nM CNL001, first column so headed
[10] = 50 nM CNL001, second column so headed
[11] = 100 nM CNL001, first column so headed
[12] = 100 nM CNL001, second column so headed
[13] = 100 nM brd (TC-5619/Bradanicline)
[14] = 300 nM brd (TC-5619/Bradanicline)
[15] = 1 uM CNL001, first column so headed
[16] = 1 uM CNL001, second column so headed

B1: CODA1053: engineered receptor: R101M, L131A in SEQ ID NO: 33 (protein)
chain: MRCSPGGVWLALAASLLHVSLQGEFQRKLYKELVKNYNPLERPVANDSQPLTVYFSLSLLQIMDVDEKNQVLTTNIWLQMSWTDHYLQWNVSEYPGVKTVMFPDGQIWKPDILLYNSADERFDATFHTNVAVNSSGHCQYLPPGIFKSSCPMDLKNFPMDVQTCKLKFGSWSYGGWSLDLQMQEADISGYIPNGEWDLVGIPGKRSERFYECCKEPYPDVTFTVTMRRRMGYYLIQMYIPSLLIVILSWISFWINMDAAPARVGLGITTVLTMTTQSSGSRASLPKVSYVKAIDIWMAVCLLFVFSALLEYAAVNFVSRQHKELLRFRRKRRHHKSPMLNLFQEDEAGEGRFNFSAYGMGPACLQAKDGISVKGANNSNTTNPPPAPSKSPEEMRKLFIQRAKKIDKISRIGFPMAFLIFNMFYWIIYKIVRREDVHNQ
modifications: synthetic sequence of chimeric LGIC
YFP fluorescence quenching using CNL001 (percent quench) [1]: −8.554% | YFP fluorescence quenching using CNL001 (percent quench) [2]: −13.711% | YFP fluorescence quenching using TC-5619/Bradanicline (percent quench) [3]: 0.008% | YFP fluorescence quenching using TC-5619/Bradanicline (percent quench) [4]: 43.21% | YFP fluorescence quenching using CNL001 (percent quench) [5]: 39.631% | YFP fluorescence quenching using CNL001 (percent quench) [6]: 66.809% | YFP fluorescence quenching using TC-5619/Bradanicline (percent quench) [7]: 77.672% | YFP fluorescence quenching using TC-5619/Bradanicline (percent quench) [8]: 76.277% | YFP fluorescence quenching using CNL001 (percent quench) [9]: 82.122% | YFP fluorescence quenching using CNL001 (percent quench) [10]: 82.031% | YFP fluorescence quenching using ABT-126 (percent quench) (50 nM abt (ABT-126)): −27.01% | YFP fluorescence quenching using CNL001 (percent quench) [11]: 83.312% | YFP fluorescence quenching using CNL001 (percent quench) [12]: 83.986% | YFP fluorescence quenching using ABT-126 (percent quench) (100 nM abt (ABT-126)): −18.76% | YFP fluorescence quenching using TC-5619/Bradanicline (percent quench) [13]: 76.856% | YFP fluorescence quenching using ABT-126 (percent quench) (300 nM abt (ABT-126)): −17.8% | YFP fluorescence quenching using TC-5619/Bradanicline (percent quench) [14]: 75.32% | YFP fluorescence quenching using CNL001 (percent quench) [15]: 84.363% | YFP fluorescence quenching using CNL001 (percent quench) [16]: 83.877% | YFP fluorescence quenching using ABT-126 (percent quench) (1 uM abt (ABT-126)): −6.55% | YFP fluorescence quenching (percent quench) (10 uM ach (acetylcholine)): −3.98% | YFP fluorescence quenching (percent quench) (100 uM ach (acetylcholine)): −11% | YFP fluorescence quenching (percent quench) (300 uM ach (acetylcholine)): −7.92% | YFP fluorescence quenching (percent quench) (500 uM ach (acetylcholine)): 7.36% | YFP fluorescence quenching (percent quench) (1 mM ach (acetylcholine)): 57.28% | YFP fluorescence quenching (percent quench) (3 mM ach (acetylcholine)): 60.54% | YFP fluorescence quenching (percent quench) (10 mM ach (acetylcholine)): 79.46% | YFP fluorescence quenching using Varenicline, 3 nM var (first column): 74.835 | YFP fluorescence quenching using Varenicline, 3 nM var (second column): 76.119 | YFP fluorescence quenching using Varenicline, 30 nM var (first column): 77.608 | YFP fluorescence quenching using Varenicline, 30 nM var (second column): 79.015 | YFP fluorescence quenching using Varenicline, 300 nM var (first column): 80.71 | YFP fluorescence quenching using Varenicline, 300 nM var (second column): 79.002 | YFP fluorescence quenching using Varenicline, 500 nM var (first column): 78.709 | YFP fluorescence quenching using Varenicline, 500 nM var (second column): 78.884 | YFP fluorescence quenching using Varenicline, 1 uM var (first column): 79.688 | YFP fluorescence quenching using Varenicline, 1 uM var (second column): 80

B2: CODA1055: engineered receptor: R101W, Y115E, Y210W in SEQ ID NO: 33 (protein)
chain: B1 chain with M101W, Y115E, A131L, Y210W
modifications: synthetic sequence of chimeric LGIC
YFP fluorescence quenching using CNL001 (percent quench) [1]: −12.889% | YFP fluorescence quenching using CNL001 (percent quench) [2]: −13.295% | YFP fluorescence quenching using TC-5619/Bradanicline (percent quench) [3]: −8.113% | YFP fluorescence quenching using TC-5619/Bradanicline (percent quench) [4]: −11.136% | YFP fluorescence quenching using CNL001 (percent quench) [5]: −10.401% | YFP fluorescence quenching using CNL001 (percent quench) [6]: −7.981% | YFP fluorescence quenching using TC-5619/Bradanicline (percent quench) [7]: 38.755% | YFP fluorescence quenching using TC-6683 (percent quench) (30 nM TC-6683): −30.056% | YFP fluorescence quenching using TC-5619/Bradanicline (percent quench) [8]: 39.111% | YFP fluorescence quenching using CNL001 (percent quench) [9]: −1.972% | YFP fluorescence quenching using CNL001 (percent quench) [10]: −1.661% | YFP fluorescence quenching using ABT-126 (percent quench) (50 nM abt (ABT-126)): −21.36% | YFP fluorescence quenching using CNL001 (percent quench) [11]: 0.277% | YFP fluorescence quenching using CNL001 (percent quench) [12]: 4.325% | YFP fluorescence quenching using ABT-126 (percent quench) (100 nM abt (ABT-126)): −22.28% | YFP fluorescence quenching using TC-5619/Bradanicline (percent quench) [13]: 61.378% | YFP fluorescence quenching using TC-6683 (percent quench) (300 nM TC-6683): −30.801% | YFP fluorescence quenching using ABT-126 (percent quench) (300 nM abt (ABT-126)): −14.63% | YFP fluorescence quenching using TC-5619/Bradanicline (percent quench) [14]: 52.398% | YFP fluorescence quenching using CNL001 (percent quench) [15]: 2.88% | YFP fluorescence quenching using CNL001 (percent quench) [16]: 3.259% | YFP fluorescence quenching using ABT-126 (percent quench) (1 uM abt (ABT-126)): −7.34% | YFP fluorescence quenching using TC-6683 (percent quench) (3 uM TC-6683): −25.558% | YFP fluorescence quenching using TC-6683 (percent quench) (30 uM TC-6683): −18.295% | YFP fluorescence quenching using TC-6683 (percent quench) (100 uM TC-6683): −17.554% | YFP fluorescence quenching (percent quench) (100 uM ach (acetylcholine)): −15.63% | YFP fluorescence quenching (percent quench) (300 uM ach (acetylcholine)): −12.05% | YFP fluorescence quenching (percent quench) (500 uM ach (acetylcholine)): −12.87% | YFP fluorescence quenching (percent quench) (1 mM ach (acetylcholine)): −11.55% | YFP fluorescence quenching (percent quench) (3 mM ach (acetylcholine)): 12.68% | YFP fluorescence quenching (percent quench) (10 mM ach (acetylcholine)): 37.58% | YFP fluorescence quenching using Varenicline, 3 nM var (first column): 0.468 | YFP fluorescence quenching using Varenicline, 3 nM var (second column): −10.015 | YFP fluorescence quenching using Varenicline, 30 nM var (first column): −15.532 | YFP fluorescence quenching using Varenicline, 30 nM var (second column): −14.462 | YFP fluorescence quenching using Varenicline, 300 nM var (first column): −17.027 | YFP fluorescence quenching using Varenicline, 300 nM var (second column): −15.59 | YFP fluorescence quenching using Varenicline, 500 nM var (first column): −13.343 | YFP fluorescence quenching using Varenicline, 500 nM var (second column): −10.702 | YFP fluorescence quenching using Varenicline, 1 uM var (first column): −6.604 | YFP fluorescence quenching using Varenicline, 1 uM var (second column): −7.612

B3: CODA1056: engineered receptor: R101F, Y115E, Y210W in SEQ ID NO: 33 (protein)
chain: B1 chain with M101F, Y115E, A131L, Y210W
modifications: synthetic sequence of chimeric LGIC
YFP fluorescence quenching using CNL001 (percent quench) [1]: −8.104% | YFP fluorescence quenching using CNL001 (percent quench) [2]: −12.153% | YFP fluorescence quenching using TC-5619/Bradanicline (percent quench) [3]: −7.894% | YFP fluorescence quenching using TC-5619/Bradanicline (percent quench) [4]: −11.812% | YFP fluorescence quenching using CNL001 (percent quench) [5]: −10.462% | YFP fluorescence quenching using CNL001 (percent quench) [6]: −4.735% | YFP fluorescence quenching using TC-5619/Bradanicline (percent quench) [7]: 36.211% | YFP fluorescence quenching using TC-6683 (percent quench) (30 nM TC-6683): −19.889% | YFP fluorescence quenching using TC-5619/Bradanicline (percent quench) [8]: 40.624% | YFP fluorescence quenching using CNL001 (percent quench) [9]: −8.617% | YFP fluorescence quenching using CNL001 (percent quench) [10]: −1.606% | YFP fluorescence quenching using ABT-126 (percent quench) (50 nM abt (ABT-126)): −20.96% | YFP fluorescence quenching using CNL001 (percent quench) [11]: −1.243% | YFP fluorescence quenching using CNL001 (percent quench) [12]: 1.838% | YFP fluorescence quenching using ABT-126 (percent quench) (100 nM abt (ABT-126)): −21.95% | YFP fluorescence quenching using TC-5619/Bradanicline (percent quench) [13]: 65.869% | YFP fluorescence quenching using TC-6683 (percent quench) (300 nM TC-6683): −22.443% | YFP fluorescence quenching using ABT-126 (percent quench) (300 nM abt (ABT-126)): −10.96% | YFP fluorescence quenching using TC-5619/Bradanicline (percent quench) [14]: 59.661% | YFP fluorescence quenching using CNL001 (percent quench) [15]: −0.567% | YFP fluorescence quenching using CNL001 (percent quench) [16]: 4.663% | YFP fluorescence quenching using ABT-126 (percent quench) (1 uM abt (ABT-126)): 10.79% | YFP fluorescence quenching using TC-6683 (percent quench) (3 uM TC-6683): −12.623% | YFP fluorescence quenching using TC-6683 (percent quench) (30 uM TC-6683): −10.728% | YFP fluorescence quenching using TC-6683 (percent quench) (100 uM TC-6683): −10.959% | YFP fluorescence quenching (percent quench) (100 uM ach (acetylcholine)): −20.55% | YFP fluorescence quenching (percent quench) (300 uM ach (acetylcholine)): −19.32% | YFP fluorescence quenching (percent quench) (500 uM ach (acetylcholine)): −19.75% | YFP fluorescence quenching (percent quench) (1 mM ach (acetylcholine)): −14.08% | YFP fluorescence quenching (percent quench) (3 mM ach (acetylcholine)): 14.07% | YFP fluorescence quenching (percent quench) (10 mM ach (acetylcholine)): 25.7%
